Test results published in patent US6323177, “Interaction of reelin with very low density lipoprotein (VLDL) receptor for screening and therapies” (St. Jude Children's Research Hospital, dated 2001).

Target: Reelin (full length, expressed from pCr1 in 293T cells, conditioned medium) (mouse)
Test: cell binding assay: 293T cells with or without VLDL receptor incubated with Reelin conditioned medium, washed, lysed, Western blot with G10
Protocol: Reelin-VLDL receptor binding assay. 293T cells transfected with or without the VLDL receptor are washed in phosphate buffer saline (PBS) containing divalent cations and distributed into Eppendorf tubes (approximately 10^6 cells/sample). For Reelin binding assays, cells are incubated with conditioned medium containing 20–100 ng of Reelin for 30 min to 2 h at 4° C. or room temperature. Cells are then washed again with PBS and solubilized in […] of TxB buffer (150 mM NaCl, 50 mM Tris-Cl pH7.5, 1% Triton-X, 1 mM EDTA) supplemented with 0.1 mg/ml Aprotinin, with 0.1 mg/m Leupeptin, 20 mM Sodium Fluoride, and 1 mM Sodium Orthovanadate. Cell extracts are clarified by centrifugation at 13,000×g for 10 min at 4° C. and subjected to Western blot analysis to reveal the presence of Reelin retained by the VLDL receptor.
Western blot analysis. Ten µl of cell extract per lane are analyzed by SDS-PAGE on 4–12% minigels (Novex). Proteins are transferred to nitrocellulose membranes and blocked in 3% milk in Tris buffer saline (TBS) for 1 h at room temperature. Proteins bound to the membranes are incubated at 4° C. overnight in antibody diluted in 0.3% milk-TBS supplemented with 0.1% Tween (TBST). Ascites fluids containing the mouse monoclonal G10 antibody (de Bergeyck et al., J. Neurosci. Methods, 82:17–24, 1998) are used at a 1:1000 dilution to detect Reelin. […]

B1: human very low density lipoprotein (VLDL) receptor, expressed on transfected 293T cells (receptor)
chain: not shown
B1: binds.
